T1: GST-IFNAR1 (wild type): bacterially expressed cytoplasmic domain of IFNAR1 fused with GST, P17181
T1 chain: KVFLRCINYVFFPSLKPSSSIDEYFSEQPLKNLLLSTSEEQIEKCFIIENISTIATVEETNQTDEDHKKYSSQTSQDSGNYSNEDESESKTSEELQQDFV

B1: GST-tagged PKD2 (human, wild type) expressed in 293T cells and purified with glutathione beads (protein)
chain: MATAPSYPAGLPGSPGPGSPPPPGGLELQSPPPLLPQIPAPGSGVSFHIQIGLTREFVLLPAASELAHVKQLACSIVDQKFPECGFYGLYDKILLFKHDPTSANLLQLVRSSGDIQEGDLVEVVLSASATFEDFQIRPHALTVHSYRAPAFCDHCGEMLFGLVRQGLKCDGCGLNYHKRCAFSIPNNCSGARKRRLSSTSLASGHSVRLGTSESLPCTAEELSRSTTELLPRRPPSSSSSSSASSYTGRPIELDKMLLSKVKVPHTFLIHSYTRPTVCQACKKLLKGLFRQGLQCKDCKFNCHKRCATRVPNDCLGEALINGDVPMEEATDFSEADKSALMDESEDSGVIPGSHSENALHASEEEEGEGGKAQSSLGYIPLMRVVQSVRHTTRKSSTTLREGWVVHYSNKDTLRKRHYWRLDCKCITLFQNNTTNRYYKEIPLSEILTVESAQNFSLVPPGTNPHCFEIVTANATYFVGEMPGGTPGGPSGQGAEAARGWETAIRQALMPVILQDAPSAPGHAPHRQASLSISVSNSQIQENVDIATVYQIFPDEVLGSGQFGVVYGGKHRKTGRDVAVKVIDKLRFPTKQESQLRNEVAILQSLRHPGIVNLECMFETPEKVFVVMEKLHGDMLEMILSSEKGRLPERLTKFLITQILVALRHLHFKNIVHCDLKPENVLLASADPFPQVKLCDFGFARIIGEKSFRRSVVGTPAYLAPEVLLNQGYNRSLDMWSVGVIMYVSLSGTFPFNEDEDINDQIQNAAFMYPASPWSHISAGAIDLINNLLQVKMRKRYSVDKSLSHPWLQEYQTWLDLRELEGKMGERYITHESDDARWEQFAAEHPLPGSGLPTDRDLGGACPPQDHDMQGLAERISVL
B2: Myc-tagged human CK1α immunopurified from 293T cells (protein)
chain: MASSSGSKAEFIVGGKYKLVRKIGSGSFGDIYLAINITNGEEVAVKLESQKARHPQLLYESKLYKILQGGVGIPHIRWYGQEKDYNVLVMDLLGPSLEDLFNFCSRRFTMKTVLMLADQMISRIEYVHTKNFIHRDIKPDNFLMGIGRHCNKLFLIDFGLAKKYRDNRTRQHIPYREDKNLTGTARYASINAHLGIEQSRRDDMESLGYVLMYFNRTSLPWQGLKAATKKQKYEKISEKKMSTPVEVLCKGFPAEFAMYLNYCRGLRFEEAPDYMYLRQLFRILFRTLNHQYDYTFDWTMLKQKAAQQAASSSGQGQQAQTPTGKQTDKTKSNMKGF
B3: GST-tagged PKD1 (human) expressed in 293T cells (protein)
chain: MSAPPVLRPPSPLLPVAAAAAAAAAALVPGSGPGPAPFLAPVAAPVGGISFHLQIGLSREPVLLLQDSSGDYSLAHVREMACSIVDQKFPECGFYGMYDKILLFRHDPTSENILQLVKAASDIQEGDLIEVVLSASATFEDFQIRPHALFVHSYRAPAFCDHCGEMLWGLVRQGLKCEGCGLNYHKRCAFKIPNNCSGVRRRRLSNVSLTGVSTIRTSSAELSTSAPDEPLLQKSPSESFIGREKRSNSQSYIGRPIHLDKILMSKVKVPHTFVIHSYTRPTVCQYCKKLLKGLFRQGLQCKDCRFNCHKRCAPKVPNNCLGEVTINGDLLSPGAESDVVMEEGSDDNDSERNSGLMDDMEEAMVQDAEMAMAECQNDSGEMQDPDPDHEDANRTISPSTSNNIPLMRVVQSVKHTKRKSSTVMKEGWMVHYTSKDTLRKRHYWRLDSKCITLFQNDTGSRYYKEIPLSEILSLEPVKTSALIPNGANPHCFEITTANVVYYVGENVVNPSSPSPNNSVLTSGVGADVARMWEIAIQHALMPVIPKGSSVGTGTNLHRDISVSISVSNCQIQENVDISTVYQIFPDEVLGSGQFGIVYGGKHRKTGRDVAIKIIDKLRFPTKQESQLRNEVAILQNLHHPGVVNLECMFETPERVFVVMEKLHGDMLEMILSSEKGRLPEHITKFLITQILVALRHLHFKNIVHCDLKPENVLLASADPFPQVKLCDFGFARIIGEKSFRRSVVGTPAYLAPEVLRNKGYNRSLDMWSVGVIIYVSLSGTFPFNEDEDIHDQIQNAAFMYPPNPWKEISHEAIDLINNLLQVKMRKRYSVDKTLSHPWLQDYQTWLDLRELECKIGERYITHESDDLRWEKYAGEQGLQYPTHLINPSASHSDTPETEETEMKALGERVSIL
B4: Myc-tagged human CK1ε immunopurified from 293T cells (protein)
chain: MELRVGNKYRLGRKIGSGSFGDIYLGANIASGEEVAIKLECVKTKHPQLHIESKFYKMMQGGVGIPSIKWCGAEGDYNVMVMELLGPSLEDLFNFCSRKFSLKTVLLLADQMISRIEYIHSKNFIHRDVKPDNFLMGLGKKGNLVYIIDFGLAKKYRDARTHQHIPYRENKNLTGTARYASINTHLGIEQSRRDDLESLGYVLMYFNLGSLPWQGLKAATKRQKYERISEKKMSTPIEVLCKGYPSEFSTYLNFCRSLRFDDKPDYSYLRQLFRNLFHRQGFSYDYVFDWNMLKFGAARNPEDVDRERREHEREERMGQLRGSATRALPPGPPTGATANRLRSAAEPVASTPASRIQPAGNTSPRAISRVDRERKVSMRLHRGAPANVSSSDLTGRQEVSRIPASQTSVPFDHLGK
B5: GST-tagged PKD3 (human) expressed in 293T cells (protein)
chain: MSANNSPPSAQKSVLPTAIPAVLPAASPCSSPKTGLSARLSNGSFSAPSLTNSRGSVHTVSFLLQIGLTRESVTIEAQELSLSAVKDLVCSIVYQKFPECGFFGMYDKILLFRHDMNSENILQLITSADEIHEGDLVEVVLSALATVEDFQIRPHTLYVHSYKAPTFCDYCGEMLWGLVRQGLKCEGCGLNYHKRCAFKIPNNCSGVRKRRLSNVSLPGPGLSVPRPLQPEYVALPSEESHVHQEPSKRIPSWSGRPIWMEKMVMCRVKVPHTFAVHSYTRPTICQYCKRLLKGLFRQGMQCKDCKFNCHKRCASKVPRDCLGEVTFNGEPSSLGTDTDIPMDIDNNDINSDSSRGLDDTEEPSPPEDKMFFLDPSDLDVERDEEAVKTISPSTSNNIPLMRVVQSIKHTKRKSSTMVKEGWMVHYTSRDNLRKRHYWRLDSKCLTLFQNESGSKYYKEIPLSEILRISSPRDFTNISQGSNPHCFEIITDTMVYFVGENNGDSSHNPVLAATGVGLDVAQSWEKAIRQALMPVTPQASVCTSPGQGKDHKDLSTSISVSNCQIQENVDISTVYQIFADEVLGSGQFGIVYGGKHRKTGRDVAIKVIDKMRFPTKQESQLRNEVAILQNLHHPGIVNLECMFETPERVFVVMEKLHGDMLEMILSSEKSRLPERITKFMVTQILVALRNLHFKNIVHCDLKPENVLLASAEPFPQVKLCDFGFARIIGEKSFRRSVVGTPAYLAPEVLRSKGYNRSLDMWSVGVIIYVSLSGTFPFNEDEDINDQIQNAAFMYPPNPWREISGEAIDLINNLLQVKMRKRYSVDKSLSHPWLQDYQTWLDLREFETRIGERYITHESDDARWEIHAYTHNLVYPKHFIMAPNPDDMEEDP

Target: T1, GST-IFNAR1 (wild type): bacterially …

Protein | in vitro phosphorylation of GST-IFNAR1 on Ser535 (immunoblot with anti-pS535) | immunokinase assay: phosphorylation of GST-IFNAR1 on Ser535
B1 | GST-tagged PKD2 expressed in 293T cells and purified by pull down with glutathione beads was capable of directly phosphorylating bacterially produced GST-IFNAR1 on Ser535 in vitro | –
B2 | – | both immunopurified (FIG. 55C) and bacterially produced CK1α (FIG. 55E, lane 6) also phosphorylated GST4FNAR1 on Ser535 in vitro
B3 | this outcome was not seen when either PKD1 or PKD3 were used as a source of kinase | –
B4 | – | immunopurified human CK18, CK1E, and protozoan parasite L-CK1 were active against IFNAR1S535 in the immunokinase assay in vitro
B5 | this outcome was not seen when either PKD1 or PKD3 were used as a source of kinase | –
